Measured values as given in the supplement of paper PMC9170038.

Legend:
MS2 coat protein [1] = test: apparent KD of MS2 coat protein, switch OFF state (with FMN for OFF switches, without FMN for ON switches); designed switch direction (-1 OFF switch, 1 ON switch): -1; higher = weaker reporter binding; conditions: FMN input: 0 or 200 uM; Eterna round: R93 (includes R88 designs)
Procedure, shortened: (§1)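 Designed RNA switches were made by on-chip transcription from Illumina sequencing clusters and then titrated with SNAP-549-labelled MS2 coat protein. Twofold steps ran from 0.7 or 1.5 nM to 3 µM, each lasting 0.8–1.5 h early and 10–20 min late, in 100 mM Tris-HCl pH 7.5, 80 mM KCl, 4 mM MgCl2, without or with constant ligand. Apparent KD is the per-design median of normalised cluster binding-curve fits.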

MS2 coat protein [2] = test: apparent KD of MS2 coat protein, switch ON state; designed switch direction (-1 OFF switch, 1 ON switch): -1; higher = weaker reporter binding; conditions: FMN input: 0 or 200 uM; Eterna round: R93 (includes R88 designs)
Procedure, shortened: as §1

Sequence	apparent KD of MS2 coat protein (MS2 coat protein [1]) [nM]	apparent KD of MS2 coat protein (MS2 coat protein [2]) [nM]
AAAGUGUGAGGAUAUGUGAAAGGACACGAAAGUGACAAAGAACAGAAGGUACAUGAGGAUCACCCAUGUAAAAA [milkweed 20]	23.5	27.4
AAAUAGUUAGGAUAUACAUGAGGAUCACCCAUGUGCACGUAUGGAGAAUAUGGUGGUGGUAGAAGGGACUAAAA [EX2 Malc#20]	94.7	55.5
AAAUAGUUAGGAUAUACAUGAGGAUCACCCAUGUGGACUUAUGGCGAAUAAUUUAGUGGUAGAAGGGACUAAAA [EX2 Malc#28]	53.8	62.9
AAAUGACAUGAGGAUCACCCAUGUCAGGAUAUGACUUGAAAAUAAAAUAAAAAACAUGUCAGAAGGGACAUGGG [Design 50: Sub-opt F]	15.5	20.3
AAAUGACUAGGAUAUACAUGAGGAUCACCCAUGUGUAUAAAUAAAUACACAAAAGAAAGUAGAAGGAGUCAAAG [Mat - Exclusion 3 - Mayanna mod - D123]	60.5	20.6
AAAUUGUCAGGAUAUCGUAGAACUCUAAAAUAGAGGAGCUACGAGAAGGGACAUGAGGAUCACCCAUGUAAAAC [May 88]	68.4	56.2
AACAAGUAAGGAUAUGCUGCUCGUCACAAAAGUGAUGAGUAGCAGAAGGUACAUGAGGAUCACCCAUGUAAAGA [JL eternac mod 16]	21.1	28
AACAAGUCAGGAUAUACAAAAAGUAAAUAAGUAAAACAAAAGUAGAAGGGACAUGAGGAUCACCCAUGUAAAUA [JR_Exc004_Sub018]	26.7	46.8
AACAAGUGAGGAUAUCUGGAUAGGAAAAAGAAAACCUAUCCAGAGAAGGCACAUGAGGAUCACCCAUGUAAAAA [JL cataway mod 6]	34.6	32.7
AACAGGUCAGGAUAUGUGCAACAGAAAAGAGCAGAAUAAGCACAGAAGGGACAUGAGGAUCACCCAUGUUAACA [May 27]	32.2	24.6
AACAGUACAGGAUAUACAUGAGGAUCACCCAUGUAGAGAAAAUAAAACAAAAAUAAAAGUAGAAGGGUACUGGA [Ruby 47]	26.4	26.6
AACAGUACAGGAUAUACAUGAGGAUCACCCAUGUAGAGAGAAUAAAACAAAAAUAAAUGUAGAAGGGUACUGGA [Moding Maslow revisited (73) 23]	26.1	25.6
AACAGUACAGGAUAUACAUGAGGAUCACCCAUGUCACACAAAUAAAACAAAAAUAAAAGUAGAAGGGUACUGGA [Ruby 40]	25.9	24.9
AACAGUACAGGAUAUACAUGAGGAUCACCCAUGUGAAAAUUAAGUGGAGAACCACAAAGUAGAAGGGUACUGAA [Mat - Exclusion 3 - Eli mod - D57]	179	27.6
AACAGUACAGGAUAUACAUGAGGAUCACCCAUGUGAGAAUUAAAAGGCGUACCUAAAAGUAGAAGGGUACUGGA [JL Maslow Revisted mod 18]	73.2	28.3
AACAGUACAGGAUAUACAUGAGGAUCACCCAUGUGAGAAUUAAGUGGCGAACCACAAAGUAGAAGGGUACUGAA [Mat - Exclusion 3 - JL mod - D7]	181	45.3
AACAGUACAGGAUAUACAUGAGGAUCACCCAUGUGGAAAUUAAGUGGCGUACCACAAAGUAGAAGGGUACUGGA [Moding Maslow revisited (73)]	100	29.5
AACAUGUAAGGAUAUCCAAGAAAAGAAAAGAAAGAAAAGAAGGAGAAGGUACAUGAGGAUCACCCAUGUAAGAA [EteRNA is fun!]	18.9	21.6
AACAUGUCAGGAUAUGCAACAGGAGACUGACACGCGAGUGAGCAGAAGGGACAUGAGGAUCACCCAUGUUCAAA [Meechl Ex4 3]	17.1	21.1
AACAUGUCAGGAUAUGUGUAAAGAAUAAAAGAAAUAACAACACAGAAGGGACAUGAGGAUCACCCAUGUCAACA [May 32]	29.3	26.1
AACAUGUGAGGAUAUUAAAGAAAAGAAAAGAAAGAAAAGAAUAAGAAGGCACAUGAGGAUCACCCAUGUAAGAA [EteRNA is fun!]	26.9	32.5
AACUAGUGAGGAUAUACAAGAAUAUAAACAAAAAUGAAGGGACAUGAGGAUCACCCAUGUAGAAGGCACUAACA [Diamond 71]	106	34
AACUGACAUGAGGAUCACCCAUGUCAGGAUAUGACUUCGAAAAAAAAAAAAAACGAUGUCAGAAGGGACAUGGG [Design 69: Sub-opt OB]	22.3	17.6

Sequence	apparent KD of MS2 coat protein (MS2 coat protein [1]) [nM]	apparent KD of MS2 coat protein (MS2 coat protein [2]) [nM]
AACUGACAUGAGGAUCACCCAUGUCAGGAUAUGACUUGAAAAAAAAAAAAAAAACAUGUCAGAAGGGACAUGGG [Design 55 :P Sub-opt HB]	17.9	26.8
AACUGACAUGAGGAUCACCCAUGUCAGGAUAUGCAUCUUAGGAAAAAAAAACUAAGAUGCAGAAGGGACAAGGG [Amethyst 48]	33.1	22.7
AACUGACAUGAGGAUCACCCAUGUCAGGAUAUGCUUCAUAAAAAAAAAAAAAAAUGAUGCAGAAGGGAUAUGGG [Design 33 :P Sub-opt 9]	34.3	18
AAGAAACAUGAGGAUCACCCAUGUCAGGAUAUCCAAAAGAAAAGAAAAGAAAGAAGAAGGAGAAGGGACAAAGG [Neferkamin Anu]	40.6	31
AAGAAACAUGAGGAUCACCCAUGUGAGGAUAUAGAAGAAAGAAAGAAAGAAAGAAGAACUAGAAGGCACAAAGG [Aemilius Rectus]	35.3	33.1
AAGAAACAUGAGGAUCACCCAUGUGAGGAUAUCCAAAAGAAAAGAAAAGAAAGAAGAAGGAGAAGGCACAAAGG [Nikare]	159	88.5
AAGAAACAUGAGGAUCACCCAUGUGAGGAUAUGAAAAAGAAAAGAAAAGAAAGAAGAAUCAGAAGGCACAAAGG [Nebkaure Khety II]	1850	22.1
AAGAAACAUGAGGAUCACCCAUGUGAGGAUAUGUAAAAGAAAAGAAAAGAAAGAAGAAACAGAAGGCACAAAGG [Neferkare VII]	48	43.1
AAGAAACGAGGAUAUACAAGAAAGAAAGAAAAGAAAAGAAAACAUGAGGAUCACCCAUGUAGAAGGCGUUAGAA [EteRNA is fun!]	13.8	22
AAGAACACAGGAUAUACAUGAAAGAAAGAAAAGAAAAGAAAACAUGAGGAUCACCCAUGUAGAAGGGUGUAGAA [EteRNA is fun!]	532	454
AAGAACCAAGGAUAUACAUGAAAGAAAGAAAAGAAAAGAAAACAUGAGGAUCACCCAUGUAGAAGGUGGUAGAA [EteRNA is fun!]	105	70.2
AAGAACUGAGGAUAUACAAAAUAAAAGAAAAGAAAGAAAGAACAUGAGGAUCACCCAUGUAGAAGGCGGAAGAA [Wahibre Ibiau]	29.1	29.4
AAGAACUGAGGAUAUACAUAAUAAAAGAAAAGAAAGAAAGAACAUGAGGAUCACCCAUGUAGAAGGCGGAAGAA [Khaneferre Sobekhotep IV]	24.5	32.7
AAGAAGAGAGGAUAUACAUAAUAAAAGAAAAGAAACAAAGAACAUGAGGAUCACCCAUGUAGAAGGCUCAAGAA [Khasekhemre Neferhotep I]	51	32.1
AAGAAGCAAGGAUAUACAUGAGGAUCACCCAUGUAAAAGAAAGAAAGGGAAAAGAAAAGUAGAAGGUGCAAGAA [Titkheperure Pasebakhenniut II]	57	45.2
AAGAAGUAAGGAUAUACAAAAUAAAAGAAAAGAAAGAAAGAACAUGAGGAUCACCCAUGUAGAAGGUACAAGAA [Sankhkare Mentuhotep III]	19.6	38.1
AAGAAGUCAGGAUAUGCAAAAGAAAAGAAAAGAAAAGAAAAGCAGAAGGGACAUGAGGAUCACCCAUGUAAGAA [Metsuire Cambyses]	40.1	32.7
AAGAAGUGAGGAUAUACAAAAUAAAAGAAAAGAAAGAAAGAACAUGAGGAUCACCCAUGUAGAAGGUACAAGAA [Khakheperre Senusret II]	22	29
AAGAAGUGAGGAUAUACAUGAGGAUCACCCAUGUAAAAGAAAGAAAGGGAAAAGAAAAGUAGAAGGCACAAGAA [Usermaatre-setpenre-meryamun Ramesses VII]	67.7	36.5
AAGAAGUGAGGAUAUACAUGAGGAUCACCCAUGUAAAAGAAAGAAGGGAAAGAGAAAAGUAGAAGGCGCAAGAA [Neferibre Psamtik II]	42.1	38.9
AAGAAGUGAGGAUAUACGCGAACAAAAAAAAAAAAGAAAGCGUAGAAGGCACAUGAGGAUCACCCAUGUCAAAA [Alfred Victor Espinas]	28.3	30.1
AAGAAGUGAGGAUAUCGAAGACUGUCGAAAAGACAGUCGAACGAGAAGGCACAUGAGGAUCACCCAUGUGGAAA [Marsurpial 65% 5]	36.3	30.7
